Laboratory results: a protein production outcome set (Wang et al. 2014)

Assay: label from the status in PepcDB records

Row | Sequence | protein production
1 | MQVRIERAERIESELEEHVGDQTFVEESRFLEEDEQREGEILDQIIFVDGKRRSFVRITTDEGITGIFAELCVGAVIWDREGGTKTLFSPDKPPVKERVLGFSQSFQEEGYEEVGGILFKVVKEGKDAMQSIDLYMRSLEIEEVRKHMDKNILIVKDGPAARELPFEENVGPIGLVKNIGVTELSKEDFKKLRFLKKGKRSKMFVSSRETPLKKVGAYVKLIDGEGIRGLVRLETYVKDDNQIPYIRKVFDDLAKTLPHLTADLPIPRLPENILPIQFLEENLSYYLTDKNYMNTRLFAYIGR | not failed
2 | MSTAMYHLRVPQTEEELERYYQFRWEMLRKPLHQPKGSERDGWDALAHHQMVVDEEGNLVAVGRLYINADNEASIRFMAVHPSVQDKGLGTLMAMTLESVARQEGVKRVTCSAREDAVEFFAKLGFVNQGEITTPTTTPIRHFLMIKPVASLDDILHRGDWCGQLQQAWYEHIPLSEKMGVRIQQYTGQKFITTMPETGNQNPHHTVFAGSLFSLATLTGWGLIWLMLRERHLGGTIILADAHIRYSKPISGKPNAVADLGSLSGDLDRLARGKKARVQLQVELLGGETAGAIFEGIYIVLPLEHHHHHH | failed
3 | MDYTYTVMTQEEAEEIAYNWHYEGEYSFYDIEADEEDLAEFLHDESRGDHIFSVKEHGTLIGYFTVCKINDGTVDIGLGMKPNITGNGFGLQFINAILAFSKEKYGCKYITLSVATFNKRAIKVYKRAGFEAVGTFIQKTNGSCFEFLKMNYICKND | failed
4 | MACHGFLGKPTPKSFGRHHKHARKNRNHQSRCLAAAVAAAGSIFTSLNMSIFTFHNRLLRCVSRFLRLATTSSATPTRRPTMKQGYKKLHKREPLIRRNDKKRTIFLDLDETLVHSTMEPPIRVNVDFMVRIKIEGAVIPMFVVKRPGVTEFLERISKNYRVAIFTAGLPEYASQVLDKLDKNRVISQRLYRDSCTEVNGRYAKDLSLVAKNDLGSVLLVDDNPFSYSLQPDNGVPIKPFMDDMEDQELMKLAEFFDGCYQYEDLRDAAAELLSSKLI | failed
5 | MSLINEATLAESIRRLRQGERATLAQAMTLVESRHPRHQALSTQLLDAIMPYCGNTLRLGVTGTPGAGKSTFLEAFGMLLIREGLKVAVIAVDPSSPVTGGSILGDKTRMNDLARAEAAFIRPVPSSGHLGGASQRARELMLLCEAAGYDVVIVETVGVGQSETEVARMVDCFISLQIAGGGDDLQGIKKGLMEVADLIVINKDDGDNHTNVAIARHMYESALHILRRKYDEWQPRVLTCSALEKRGIDEIWHAIIDFKTALTASGRLQQVRQQQSVEWLRKQTEEEVLNHLFANEDFDRYYRQTLLAVKNNTLSPRTGLRQLSEFIQTQYFDEGHHHHHH | not failed
6 | MFIKLMRNIFSELTSHIQNMKLYFKRSLLVFSLMSSFCVASERSAWEEVYAKSQHKQTETALKLLQDRYHSLPEGAEKLYLTSKLHGYFVLKGQPYYGELVNSHDTYALTEQRFLDALNHEESLDYHSAEETYLTFYAEMKQKNDQDGMVLFEYHLCRLFQRHGRPYQARFYCSQMDQRLLNAEDPLFPRYRGLHLVANNLEFLGEYEEALQTYDLLLSLLPDYVDPSGIYNDVGLLMGTLGQYESALDYLNKALEYRLEQGNPLLIAQVEHSLGDTYFKQGRYEESILYFEQAKAHLTPANYLFGLAYVHLGLGKAYIELNNFVEGDQHLFQALEYVNQHKDQHLQGLIYLSLAQAHFKEQKYAQAIDYANQAVAISESASLPRIKAQAYLQLAKIAEAEQQYQEALSWYRQYAESELLLRNTEQRKAFEALDLAKAELEQKRGVNFWRENYQALAEKYEMLKWQRVSLSLLVIVFALILPIAHYRRRKECDQNQQDSLHGVLSRTSGLERLTHIEACQQTEHVHLLALLDIDQLRQFNERHGYERGDIALQNTINTLLHQLRAKEFVCRLGDDEFLVVMPNCRRTLSETRLFVLHHALNGKTPTDAKSTVGLSVTLSYLAVESGLASFTHFYPKLDSALSIAKQSGNGGLIDAADPTNALLTACS | failed
7 | AHADFEHLPVALMKFGSDGSLRVANRAARDLLGLGHDAQPDFSDLFEGLGRAVRDWLADVAAERMPGGAEVLRLRRSEEEVFLQIALRRIVEHGRPLVLAVLNDAT | failed
8 | MSVCPTNFDEKVECPFVDRKEFTEAFEKAFNNIDQQNYSILVYYGVAGIGKTSLRKELPALLEKHNESDLHTRVIWTSIDFATEQYKQPYKFLEVLSSQLRQKYNVKFNSFDIALATYWKKINPHNPLVKENYSEGSIVHDILDVCDEFVPANLIPNVYNLTKNLPKHYQKWVLKREEDISGLQNLEPTEIYKRLPVYLAHDLADHLQNTSELAVIFIDTYEALWEKERDKGSFNSRDEWLRKLIEKIQKSCLWVICGKESLRWEEVDEDWKNYLDQRKIGKLPEKDALDLLKQCGITEEDIQNVLIESSEGVPYYLELSIDIYRKIKKKKQPTPENFAKVPEGIFCRFVKYLDREEKETLKVLSVPRYWNRELFKILVEKFNTGYPATSFSELHSFSFMDVDDKGKCSMHQLMRKSLKDYQDQDLKKEVHNFMLDFYSNQLKDIDIKEITPEHEIALTEAFYHAKEALEAEDLLKWFISVSDPFNRAAFWQLITPMYEEMLQILEAKHGPEHKDIVTTLNILDVLYYKMGEYKKALQFSERALAIGETILGVQHPDVATSLDNLAGLYESMGNYKQALQLSERALEIYEKVLGPQHRDVAITLDNLAGLYESMGEYEKALIFYQRTIEIKEKVLGPQHSNFATSLDNLAVLYRQMGEYEKALQLSQRALEIYEKVLGPQHPDIATTLNNIALLYDSMGDYQKTLPLYQRALEINEKVFGPQYLGIATTLNNLAGFYRRVGDYEKALSLSQRSLEIDEKVLGSQHPDVARTLNSLALIYENIGDYEKALAFYQRSLDIREKVLGPQHPDVGRTLNNLARLYEIMGDHEKALTLYQRTIEIKEKALGPQHPDVATILNNLAGLHYRIGEYKKALPLYQRALDIVEKKLGQNQPNSVVIKNNYNRLLSKMSENEKK | failed
9 | MIYDLHSHSTASDGMLTPTELILRAVEQKVDVLALTDHDTLAGIQEAKIAAESQPIQLISGVEISALWQNKNIHLTALDIDEHHPALIELLQHHAVLREQRAVEIGEKLAKAGIPNAYHGAKMLANGEVTRAHYARFLVQQDYVRNIEHAFKKYLGTGKIAYVKPQWSSISHVIDVTHQAGGVICLAHPLRYKMTARWLRALIEHFKQAGGDGIEVASCGQRPDQRQLIARWASEFDLYASVGSDFHYPTGWIELGKSLTLPTTCKPIWQLFTTQ | failed
10 | VAKMRFIDIGANLLDEMYTGQYNDKPYHPPDLSAVLERAWAAGLEKLMITAGSLKEARAALELAKTDERLYCTVGCHPTRCKEFEDHPGGPEAYLQELLEVLKEGQALGKVVAVGECGLVATDYERLHFCDADTQKKYFEAQFRLAKESGLPMFLHLRAAADDFLDITGRHLGDFPRGGVVHSFDGTAEEAARVLAVPQLAIGINGCSLKTDDNLAVVGGLPLERIMLETDCPWCEIRPTHAGRKHVSAEALAGVTGAKDRKKFMPGCQVKSRNEPANIRQVLEVVAGVKGRTDLEAVADVIFGNTERMFFPTA | not failed
11 | MELGFPLLWLSLVLPVLASLTIVALPPRTAYWLVAITLAIPGIVSSYYAFQGVLSEGIIDPVSLNLSNIGIGVVALAVDGFSYPFVLGVSVVTALVAVYGYKYMEVRLREMEGEGERAPGHAAYLILYSIFSSTMLGIAYSLNFLLFIIFLELSLLSSFLLIAFYGYGDRRRIALLYFVWTHIAGALALLGGLYYVIKTGTFDVATVEGGRIVYFSSPADRSVYAAIAGVSLLLGMLVKMAVFGVHMWLPYAHAEAPTPISALLSPNLIGLGGYGIARFAAAFYPWLLEDLKPLLVGLAFVTIVYGGLVALSQLDFKRLLAYSSISQMGYMLLALSTLHPLGFAAASLIFLGHAVGKAVLFMTAGVFITEAHGLRNIARMGGLARLYPLTAAAALIGFLHLAGIPPAFGFWGELYLTLSVLNYPGYSDAVSLGLLAIILIVAFTVTAAYSFITMRRIFFGRPRADMDAREEVDGFKSTVVLLAVLGVALFLLAGPMVTDLAASSLAMVEAFLS | failed
12 | MGHLSAPLHRVRVPWQGLLLTASLLTFWNPPTTAQLTTESMPFNVAEGKEVLLLVHNLPQQLFGYSWYKGERVDGNRQIVGYAIGTQQATPGPANSGRETIYPNASLLIQNVTQNDTGFYTLQVIKSDLVNEEATGQFHVYPELPKPSISSNNSNPVEDKDAVAFTCEPETQDTTYLWWINNQSLPVSPRLQLSNGNRTLTLLSVTRNDTGPYECEIQNPVSANRSDPVTLNVTYGPDTPTISPSDTYYRPGANLSLSCYAASNPPAQYSWLINGTFQQSTQELFIPNITVNNSGSYTCHANNSVTGCNRTTVKTIIVTELSPVVAKPQIKASKTTVTGDKDSVNLTCSTNDTGISIRWFFKNQSLPSSERMKLSQGNTTLSINPVKREDAGTYWCEVFNPISKNQSDPIMLNVNYNALPQENGLSPGAIAGIVIGVVALVALIAVALACFLHFGKTGRASDQRDLTEHKPSVSNHTQDHSNDPPNKMNEVTYSTLNFEAQQPTQPTSASPSLTATEIIYSEVKKQ | failed
13 | MEVFLMIRRKKTTIFAEAQESSTVLELKRIVQGILKRPPEEQLLFKDDQLLDESKTLRDCGFTSQIAKAQDPATVALVFREDASEGVQIHPYSTPLLPSVMKTGTDSLSDEIKSGLDSLSDEIKSGLDSVWCIKPEAAAGMEVFLMIRRKKTTIFAEAQESSTVLELKRIVQGFLKKPPKDQLLFKDNQLLEERKTLRDCGITGRIAKPEDPAILTLEFREDAFQLLHASPFSCPLIGGVLKNGLDFKRD | failed
14 | MAEANTPHIAIMPSPGMGHLIPFVELAKRLVQHDCFTVTMIISGETSPSKAQRSVLNSLPSSIASVFLPPADLSDVPSTARIETRAMLTMTRSNPALRELFGSLSTKKSLPAVLVVDMFGADAFDVAVDFHVSPYIFYASNANVLSFFLHLPKLDKTVSCEFRYLTEPLKIPGCVPITGKDFLDTVQDRNDDAYKLLLHNTKRYKEAKGILVNSFVDLESNAIKALQEPAPDKPTVYPIGPLVNTSSSNVNLEDKFGCLSWLDNQPFGSVLYISFGSGGTLTCEQFNELAIGLAESGKRFIWVIRSPSEIVSSSYFNPHSETDPFSFLPIGFLDRTKEKGLVVPSWAPQVQILAHPSTCGFLTHCGWNSTLESIVNGVPLIAWPLFAEQKMNTLLLVEDVGAALRIHAGEDGIVRREEVVRVVKALMEGEEGKAIGNKVKELKEGVVRVLGDDGLSSKSFGEVLLKWKTHQRDINQETSH | failed
15 | MSVSGQPVLRAAVVTLQGRREDNQDFAAIAEPSPRDAAARGFVAAVADGIGGARGGRVAAEVSVRSFMEAYYGLSETLGMQQLLDRCLGSANRWVHAMGRLDPELAHMGTTFSGLIFRGRRAYLVHVGDSRIYRLRGDEPELLTSDHTLSGPGLDHVLYRAVGLDPGLRIDYSVYPLEPHDRFLLCSDGLHGSLQQEQIREILQERATPETTAEALARLAFEQGSQDNITALVVDVIALPPAEKQSLRLAIESLPLLDLPEVGDEVDGFRLERLLSSGRYSALFLAADTLGQDKPVVVKFPHPRVASEREYYDAFVREAWIGARVKSPWVGEILEQTPGRQSRLYSVMPFYPGASLEHELARRPRIGLEAGIDLALKLCKAVHALHRQQIVHRDIKPDNVLLDPEGGLKLLDLGIARLPAWDEDQADPIPGTPSYMAPEMFQGERGSIATDVFALGVTLYRTFAGGAYPYGEVEPFSTPRFGSPRPLTAHRPDLPAWLDAVLARAIAADPAQRPADAVELAYELEAGLEKGGGRRPPRRPLPLYERNPLQFWKAVAALLLALLAMAGLRLSLSCRPPSEAASRNNPLIHDNGDSR | failed
16 | DIQVITQTGVPGQPLNFKAEPESETSILLSWTPPRSDTIANYELVYKDGEHGEEQRITIEPGTSYRLQGLKPNSLYYFRLAARSPQGLGASTAEISARTMQS | not failed
17 | MLTYFHPDQSLHHPRTYFSRGRMRMPQEVPERAARLVAAAFAMGFPVREPDDFGIAPIAAVHDTHYLRFLETVHREWKAMPEDWGDEAMSNIFVREPNALRGVLAQAARHLADGSCPVGEHTWRAAYWSAQSALAAAAAVRDGAPAAYALCRPPGHHARVDAAGGFCYLNNAAIAAQALRARHARVAVLDTDMHHGQGIQEIFYARRDVLYVSIHGDPTNFYPAVAGFDDERGAGEGLGYNVNLPMPHGSSEAAFFERVDDALRELRRFAPDALVLSLGFDVYRDDPQSQVAVTTDGFGRLGHLIGALRLPTVIVQEGGYHIESLEANARSFFGGFGALRG | not failed
